Test results published in patent publication US20140087995A1 (published 2014).
Values belong to the binder of their own block, whether it stands above or below them. Numbered stars: 1 amine (or outer) side, 2 acyl side, 3 side chain; on linkers, the order of the positions; unused ones are H or OH. Bridge positions count the residues as written; N and C are the ends. Side chains are listed from the residue outwards. Ends that are not written are not given here. * marks the point of attachment. C20 diacid = O=C(O)CCCCCCCCCCCCCCCCCCC(=O)*; γGlu = O=C(O)[C@H](CCC(=O)[*:2])N[*:1]

What was measured:
[1] = biological target: T1, human calcitonin receptor (human, UniProt P30988 25-474); assay: cell-based or functional assay
T1 sequence (looked up): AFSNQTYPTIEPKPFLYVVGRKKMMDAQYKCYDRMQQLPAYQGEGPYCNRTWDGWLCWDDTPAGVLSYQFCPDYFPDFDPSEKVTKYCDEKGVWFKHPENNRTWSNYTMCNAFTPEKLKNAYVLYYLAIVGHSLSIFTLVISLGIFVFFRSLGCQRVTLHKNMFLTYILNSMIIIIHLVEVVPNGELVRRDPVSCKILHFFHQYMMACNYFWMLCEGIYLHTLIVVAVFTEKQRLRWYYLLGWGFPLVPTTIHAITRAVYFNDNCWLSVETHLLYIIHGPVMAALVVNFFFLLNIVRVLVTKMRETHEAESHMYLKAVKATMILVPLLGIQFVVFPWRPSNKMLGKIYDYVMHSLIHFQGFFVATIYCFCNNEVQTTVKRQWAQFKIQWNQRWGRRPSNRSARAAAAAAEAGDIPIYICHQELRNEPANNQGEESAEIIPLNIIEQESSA

[2] = biological target: T2, human amylin receptor (Amylin 3(a) receptor: human calcitonin receptor co-expressed with RAMP-3) (human, UniProt P30988 25-474; O60896 24-148, limits assumed); assay: SPA competition binding, displacement of 125I-rat amylin from membranes of BHK cells with human calcitonin receptor + RAMP-3 (Assay V)
T2 construct: whole, on cells; Used as cell membranes prepared from the Amylin 3(a)/CRE-luc BHK cells (Assay V); the complex is called the human amylin receptor; also called hAmylin-R; hAmylinR
T2 sequence (looked up) 1: T1 sequence (looked up)
T2 sequence (looked up) 2: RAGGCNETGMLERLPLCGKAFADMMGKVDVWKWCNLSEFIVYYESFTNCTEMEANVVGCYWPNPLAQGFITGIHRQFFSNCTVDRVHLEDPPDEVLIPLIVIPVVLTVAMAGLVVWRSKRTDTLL
Method: The binding assay was performed using scintillation proximity assay (SPA) beads (RPNQ0001) from PerkinElmer and cell membranes from the Amylin 3(a)/CRE-luc cells (as described in Assay (II)) were used. Membranes were prepared in the following way; the cells were rinsed with PBS and incubated with Versene for approximately 5 min before harvesting. The cells were flushed with PBS and the cell-suspension was centrifuged for 5 min at 1000 rpm. Cells were homogenized (ultrathurrax) in a buffer containing 20 mM Na-HEPES and 10 mM EDTA (pH 7.4) and centrifuged at 20.000 rpm for 15 min. The resulting pellet was resuspended, homogenized and centrifuged (20.000 rpm, 15 min) in a buffer containing 20 mM Na-HEPES and 0.1 mM EDTA (pH 7.4, buffer 2). The resulting pellet was resuspended in buffer 2 and protein concentration was measured (BCA protein Assay, Pierce). The homogenate was kept cold during the whole procedure. The membranes were kept at −80° C. until use. The assay was performed in a 384 well Optiplate (PerkinElmer) in a total volume of 40 ul. Membranes were mixed with SPA beads. Final concentration of membranes 35 ng/μL final and SPA beads was 0.05 mg/well. Test-compounds were dissolved in DMSO and further diluted in assay buffer (50 mM Hepes, pH 7.4, 1 mM CaCl2, 5 mM MgCl₂, 0.1% OA and 0.02% Tween20). […] The final mixture was incubated with shaking at 400 rpm for 120 min at 25° C. prior to centrifugation (1500 rpm, 10 min). Samples were analyzed on TopCounter™ (Packard). The IC₅₀ was calculated using (one site binding competition analysis) GraphPad Prism5 as a measure of receptor affinity.

B2: N^-1-[(4S)-4-carboxy-4-(19-carboxynonadecanoylamino)butanoyl]-Gly[Arg1,His14,Arg17,Pro21,Pro27,His34]-h-amylin (peptide)
peptide: {C20 diacid-γGlu}-GRCNTATCATQRLAHFLRHSSPNFGAIPSSTNVGHNTY-NH2
modifications: disulfide 3-8
SMILES: CC[C@H](C)[C@H](NC(=O)[C@H](C)NC(=O)CNC(=O)[C@H](Cc1ccccc1)NC(=O)[C@H](CC(N)=O)NC(=O)[C@@H]1CCCN1C(=O)[C@H](CO)NC(=O)[C@H](CO)NC(=O)[C@H](Cc1c[nH]cn1)NC(=O)[C@H](CCCNC(=N)N)NC(=O)[C@H](CC(C)C)NC(=O)[C@H](Cc1ccccc1)NC(=O)[C@H](Cc1c[nH]cn1)NC(=O)[C@H](C)NC(=O)[C@H](CC(C)C)NC(=O)[C@H](CCCNC(=N)N)NC(=O)[C@H](CCC(N)=O)NC(=O)[C@@H](NC(=O)[C@H](C)NC(=O)[C@@H]1CSSC[C@H](NC(=O)[C@H](CCCNC(=N)N)NC(=O)CNC(=O)CC[C@H](NC(=O)CCCCCCCCCCCCCCCCCCC(=O)O)C(=O)O)C(=O)N[C@@H](CC(N)=O)C(=O)N[C@@H]([C@@H](C)O)C(=O)N[C@@H](C)C(=O)N[C@@H]([C@@H](C)O)C(=O)N1)[C@@H](C)O)C(=O)N1CCC[C@H]1C(=O)N[C@@H](CO)C(=O)N[C@@H](CO)C(=O)N[C@H](C(=O)N[C@@H](CC(N)=O)C(=O)N[C@H](C(=O)NCC(=O)N[C@@H](Cc1c[nH]cn1)C(=O)N[C@@H](CC(N)=O)C(=O)N[C@H](C(=O)N[C@@H](Cc1ccc(O)cc1)C(N)=O)[C@@H](C)O)C(C)C)[C@@H](C)O
notes: modifications are with respect to human amylin; also called compound 100
IC50 [2]: 1.01 nM

B5: N{-1}-[(4S)-4-carboxy-4-(19-carboxynonadecanoylamino)butanoyl]-Gly[Arg1,His14,Arg17,Pro21,Pro27]-h-amylin (peptide)
peptide: {C20 diacid-γGlu}-GRCNTATCATQRLAHFLRHSSPNFGAIPSSTNVGSNTY-NH2
modifications: disulfide 3-8
SMILES: CC[C@H](C)[C@H](NC(=O)[C@H](C)NC(=O)CNC(=O)[C@H](Cc1ccccc1)NC(=O)[C@H](CC(N)=O)NC(=O)[C@@H]1CCCN1C(=O)[C@H](CO)NC(=O)[C@H](CO)NC(=O)[C@H](Cc1c[nH]cn1)NC(=O)[C@H](CCCNC(=N)N)NC(=O)[C@H](CC(C)C)NC(=O)[C@H](Cc1ccccc1)NC(=O)[C@H](Cc1c[nH]cn1)NC(=O)[C@H](C)NC(=O)[C@H](CC(C)C)NC(=O)[C@H](CCCNC(=N)N)NC(=O)[C@H](CCC(N)=O)NC(=O)[C@@H](NC(=O)[C@H](C)NC(=O)[C@@H]1CSSC[C@H](NC(=O)[C@H](CCCNC(=N)N)NC(=O)CNC(=O)CC[C@H](NC(=O)CCCCCCCCCCCCCCCCCCC(=O)O)C(=O)O)C(=O)N[C@@H](CC(N)=O)C(=O)N[C@@H]([C@@H](C)O)C(=O)N[C@@H](C)C(=O)N[C@@H]([C@@H](C)O)C(=O)N1)[C@@H](C)O)C(=O)N1CCC[C@H]1C(=O)N[C@@H](CO)C(=O)N[C@@H](CO)C(=O)N[C@H](C(=O)N[C@@H](CC(N)=O)C(=O)N[C@H](C(=O)NCC(=O)N[C@@H](CO)C(=O)N[C@@H](CC(N)=O)C(=O)N[C@H](C(=O)N[C@@H](Cc1ccc(O)cc1)C(N)=O)[C@@H](C)O)C(C)C)[C@@H](C)O
notes: N-terminal extension by Gly; synthetic peptide amide; also called compound 99
hCTR funct. EC50 (pM) [1]: 818 pM

B6: N^-1-[(4S)-4-carboxy-4-(19-carboxynonadecanoylamino)butanoyl]-Gly[Arg1,His14,Arg17,Pro21,Pro27,His34]-h-amylin (peptide)
peptide: {C20 diacid-γGlu}-GRCNTATCATQRLAHFLRHSSPNFGAIPSSTNVGHNTY-NH2
modifications: disulfide 3-8
SMILES: CC[C@H](C)[C@H](NC(=O)[C@H](C)NC(=O)CNC(=O)[C@H](Cc1ccccc1)NC(=O)[C@H](CC(N)=O)NC(=O)[C@@H]1CCCN1C(=O)[C@H](CO)NC(=O)[C@H](CO)NC(=O)[C@H](Cc1c[nH]cn1)NC(=O)[C@H](CCCNC(=N)N)NC(=O)[C@H](CC(C)C)NC(=O)[C@H](Cc1ccccc1)NC(=O)[C@H](Cc1c[nH]cn1)NC(=O)[C@H](C)NC(=O)[C@H](CC(C)C)NC(=O)[C@H](CCCNC(=N)N)NC(=O)[C@H](CCC(N)=O)NC(=O)[C@@H](NC(=O)[C@H](C)NC(=O)[C@@H]1CSSC[C@H](NC(=O)[C@H](CCCNC(=N)N)NC(=O)CNC(=O)CC[C@H](NC(=O)CCCCCCCCCCCCCCCCCCC(=O)O)C(=O)O)C(=O)N[C@@H](CC(N)=O)C(=O)N[C@@H]([C@@H](C)O)C(=O)N[C@@H](C)C(=O)N[C@@H]([C@@H](C)O)C(=O)N1)[C@@H](C)O)C(=O)N1CCC[C@H]1C(=O)N[C@@H](CO)C(=O)N[C@@H](CO)C(=O)N[C@H](C(=O)N[C@@H](CC(N)=O)C(=O)N[C@H](C(=O)NCC(=O)N[C@@H](Cc1c[nH]cn1)C(=O)N[C@@H](CC(N)=O)C(=O)N[C@H](C(=O)N[C@@H](Cc1ccc(O)cc1)C(N)=O)[C@@H](C)O)C(C)C)[C@@H](C)O
notes: N-terminal extension by Gly; synthetic peptide amide; also called compound 100
hCTR funct. EC50 (pM) [1]: 1730 pM

More lines, now with the values ahead:

hCTR funct. EC50 (pM) [1]: 841 pM
B1: N^ε1-[(4S)-4-carboxy-4-(19-carboxynonadecanoylamino)butanoyl]-[Glu14,Arg17,Pro21,Pro27,Pro34,Glu35]-h-amylin (peptide)
peptide: K([γGlu-C20 diacid])CNTATCATQRLAEFLRHSSPNFGAIPSSTNVGPETY-NH2
modifications: disulfide 2-7; N-terminus assumed
SMILES: CC[C@H](C)[C@H](NC(=O)[C@H](C)NC(=O)CNC(=O)[C@H](Cc1ccccc1)NC(=O)[C@H](CC(N)=O)NC(=O)[C@@H]1CCCN1C(=O)[C@H](CO)NC(=O)[C@H](CO)NC(=O)[C@H](Cc1c[nH]cn1)NC(=O)[C@H](CCCNC(=N)N)NC(=O)[C@H](CC(C)C)NC(=O)[C@H](Cc1ccccc1)NC(=O)[C@H](CCC(=O)O)NC(=O)[C@H](C)NC(=O)[C@H](CC(C)C)NC(=O)[C@H](CCCNC(=N)N)NC(=O)[C@H](CCC(N)=O)NC(=O)[C@@H](NC(=O)[C@H](C)NC(=O)[C@@H]1CSSC[C@H](NC(=O)[C@@H](N)CCCCNC(=O)CC[C@H](NC(=O)CCCCCCCCCCCCCCCCCCC(=O)O)C(=O)O)C(=O)N[C@@H](CC(N)=O)C(=O)N[C@@H]([C@@H](C)O)C(=O)N[C@@H](C)C(=O)N[C@@H]([C@@H](C)O)C(=O)N1)[C@@H](C)O)C(=O)N1CCC[C@H]1C(=O)N[C@@H](CO)C(=O)N[C@@H](CO)C(=O)N[C@H](C(=O)N[C@@H](CC(N)=O)C(=O)N[C@H](C(=O)NCC(=O)N1CCC[C@H]1C(=O)N[C@@H](CCC(=O)O)C(=O)N[C@H](C(=O)N[C@@H](Cc1ccc(O)cc1)C(N)=O)[C@@H](C)O)C(C)C)[C@@H](C)O
notes: synthetic peptide amide

IC50 [2]: 0.348 nM
B3: N{-1}-[(4S)-4-carboxy-4-(19-carboxynonadecanoylamino)butanoyl]-Gly[Arg1,His14,Arg17,Pro21,Pro27]-h-amylin (peptide)
peptide: {C20 diacid-γGlu}-GRCNTATCATQRLAHFLRHSSPNFGAIPSSTNVGSNTY-NH2
modifications: disulfide 3-8
SMILES: CC[C@H](C)[C@H](NC(=O)[C@H](C)NC(=O)CNC(=O)[C@H](Cc1ccccc1)NC(=O)[C@H](CC(N)=O)NC(=O)[C@@H]1CCCN1C(=O)[C@H](CO)NC(=O)[C@H](CO)NC(=O)[C@H](Cc1c[nH]cn1)NC(=O)[C@H](CCCNC(=N)N)NC(=O)[C@H](CC(C)C)NC(=O)[C@H](Cc1ccccc1)NC(=O)[C@H](Cc1c[nH]cn1)NC(=O)[C@H](C)NC(=O)[C@H](CC(C)C)NC(=O)[C@H](CCCNC(=N)N)NC(=O)[C@H](CCC(N)=O)NC(=O)[C@@H](NC(=O)[C@H](C)NC(=O)[C@@H]1CSSC[C@H](NC(=O)[C@H](CCCNC(=N)N)NC(=O)CNC(=O)CC[C@H](NC(=O)CCCCCCCCCCCCCCCCCCC(=O)O)C(=O)O)C(=O)N[C@@H](CC(N)=O)C(=O)N[C@@H]([C@@H](C)O)C(=O)N[C@@H](C)C(=O)N[C@@H]([C@@H](C)O)C(=O)N1)[C@@H](C)O)C(=O)N1CCC[C@H]1C(=O)N[C@@H](CO)C(=O)N[C@@H](CO)C(=O)N[C@H](C(=O)N[C@@H](CC(N)=O)C(=O)N[C@H](C(=O)NCC(=O)N[C@@H](CO)C(=O)N[C@@H](CC(N)=O)C(=O)N[C@H](C(=O)N[C@@H](Cc1ccc(O)cc1)C(N)=O)[C@@H](C)O)C(C)C)[C@@H](C)O
notes: modifications are with respect to human amylin; also called compound 99

IC50 [2]: 0.121 nM
B4: N^ε1-[(4S)-4-carboxy-4-[[(4S)-4-carboxy-4-(19-carboxynonadecanoylamino)butanoyl]amino]butanoyl]-[Glu14,Arg17,Pro21,Pro27,Pro34,Glu35]-h-amylin (peptide)
peptide: K([γGlu-γGlu-C20 diacid])CNTATCATQRLAEFLRHSSPNFGAIPSSTNVGPETY-NH2
modifications: disulfide 2-7 (inferred)
notes: modifications are with respect to human amylin
